Laboratory results reported in paper PMC6620310, “A ubiquitin-like domain is required for stabilizing the N-terminal ATPase module of human SMCHD1” (Communications Biology, 2019).

B1: SMCHD1(24–580) wild-type [human] / itself (parent complex)
chain: GHRTVYLFDRREKESELGDRPLQVGERSDYAGFRACVCQTLGISPEEKFVITTTSRKEITCDNFDETVKDGVTLYLLQSVNQLLLTATKERIDFLPHYDTLVKSGMYEYYASEGQNPLPFALAELIDNSLSATSRNIGVRRIQIKLLFDETQGKPAVAVIDNGRGMTSKQLNNWAVYRLSKFTRQGDFESDHSGYVRPVPVPRSLNSDISYFGVGGKQAVFFVGQSARMISKPADSQDVHELVLSKEDFEKKEKNKEAIYSGYIRNRKPSDSVHITNDDERFLHHLIIEEKEKDSFTAVVITGVQPEHIQYLKNYFHLWTRQLAHIYHYYIHGPKGNEIRTSKEVEPFNNIDIEISMFEKGKVPKIVNLREIQDDMQTLYVNTAADSFEFKAHVEGDGVVEGIIRYHPFLYDRETYPDDPCFPSKLKDEDDEDDCFILEKAARGKRPIFECFWNGRLIPYTSVEDFDWCTPPKKRGLAPIECYNRISGALFTNDKFQVSTNKLTFMDLELKLKDKNTLFTRILNGQEQRMKIDREFALWLKDCHEKYDKQIKFTLFK

Variants of: B1
Assay: native PAGE; parent: 0.098; read off a plot

Variant	screen value
chain 1 G455E	~0.01
chain 1 E450G	~0.2
chain 1 E450Q	~0.12
chain 1 L171F	~0.008
chain 1 H325R	~0.12
chain 1 G114E	~0.15

The remaining lines, values ahead:

screen value	Variant
~0.11	chain 1 Q322R
~0.093	chain 1 N116H
~0.11	chain 1 T500K
~0.012	chain 1 Y260C
~0.096	chain 1 S112C
